Test results: article PMC6026032

Columns and labels:
Conditions in all cases: glycan lost; control: wild type
[1] = co-IP from conditioned medium
[2] = native gel electrophoresis, HA immunoblot
[3] = immunoblot of HEK293T conditioned medium

Protein | oligomerisation [1] | oligomerisation [2] | expression_or_secretion [3]
Cbln4: Cbln4N26Q (protein) parent chain: MGSARRALSVVPAVLLILVLPVWAQNDTEPIVLEGKCLVVCDSNPATDSKGSSSSPLGISVRAANSKVAFSAVRSTNHEPSEMSNKTRIIYFDQILVNVGNFFTLESVFVAPRKGIYSFSFHVIKVYQSQTIQVNLMLNGKPVISAFAGDKDVTREAATNGVLLYLDKEDKVYLKLEKGNLLGGWQYSTFSGFLVFPL | no change | changes | –
Cbln4: Cbln4N85Q (protein) parent chain: MGSARRALSVVPAVLLILVLPVWAQNDTEPIVLEGKCLVVCDSNPATDSKGSSSSPLGISVRAANSKVAFSAVRSTNHEPSEMSNKTRIIYFDQILVNVGNFFTLESVFVAPRKGIYSFSFHVIKVYQSQTIQVNLMLNGKPVISAFAGDKDVTREAATNGVLLYLDKEDKVYLKLEKGNLLGGWQYSTFSGFLVFPL | no change | no change | –
Cbln2: N110Q (protein) parent chain: MPAPGQGPRGPLLSMPGRRGALREPADFGSSLGAVLALLLLLLPACCPVRAQNDTEPIVLEGKCLVVCDSSPSGDGAVTSSLGISVRSGSAKVAFSATRSTNHEPSEMSNRTMTIYFDQVLVNIGNHFDLASSIFVAPRKGIYSFSFHVVKVYNRQTIQVSLMQNGYPVISAFAGDQDVTREAASNGVLLLMEREDKVHLKLERGNLMGGWKYSTFSGFLVFPL | – | – | no change
Cbln2: Cbln2N53Q (protein) parent chain: MPAPGQGPRGPLLSMPGRRGALREPADFGSSLGAVLALLLLLLPACCPVRAQNDTEPIVLEGKCLVVCDSSPSGDGAVTSSLGISVRSGSAKVAFSATRSTNHEPSEMSNRTMTIYFDQVLVNIGNHFDLASSIFVAPRKGIYSFSFHVVKVYNRQTIQVSLMQNGYPVISAFAGDQDVTREAASNGVLLLMEREDKVHLKLERGNLMGGWKYSTFSGFLVFPL | – | no change | –
Cbln2: Cbln2N110Q (protein) parent chain: MPAPGQGPRGPLLSMPGRRGALREPADFGSSLGAVLALLLLLLPACCPVRAQNDTEPIVLEGKCLVVCDSSPSGDGAVTSSLGISVRSGSAKVAFSATRSTNHEPSEMSNRTMTIYFDQVLVNIGNHFDLASSIFVAPRKGIYSFSFHVVKVYNRQTIQVSLMQNGYPVISAFAGDQDVTREAASNGVLLLMEREDKVHLKLERGNLMGGWKYSTFSGFLVFPL | – | no change | –
Cbln1: N23Q (protein) parent chain: MLGVVELLLLGTAWLAGPARGQNETEPIVLEGKCLVVCDSNPTSDPTGTALGISVRSGSAKVAFSAIRSTNHEPSEMSNRTMIIYFDQVLVNIGNNFDSERSTFIAPRKGIYSFNFHVVKVYNRQTIQVSLMLNGWPVISAFAGDQDVTREAASNGVLIQMEKGDRAYLKLERGNLMGGWKYSTFSGFLVFPL | – | – | no change
Cbln1: N79Q (protein) parent chain: MLGVVELLLLGTAWLAGPARGQNETEPIVLEGKCLVVCDSNPTSDPTGTALGISVRSGSAKVAFSAIRSTNHEPSEMSNRTMIIYFDQVLVNIGNNFDSERSTFIAPRKGIYSFNFHVVKVYNRQTIQVSLMLNGWPVISAFAGDQDVTREAASNGVLIQMEKGDRAYLKLERGNLMGGWKYSTFSGFLVFPL | – | – | no change
Cbln1: Cbln1N79Q (protein) parent chain: MLGVVELLLLGTAWLAGPARGQNETEPIVLEGKCLVVCDSNPTSDPTGTALGISVRSGSAKVAFSAIRSTNHEPSEMSNRTMIIYFDQVLVNIGNNFDSERSTFIAPRKGIYSFNFHVVKVYNRQTIQVSLMLNGWPVISAFAGDQDVTREAASNGVLIQMEKGDRAYLKLERGNLMGGWKYSTFSGFLVFPL | no change | no change | –
Cbln1: Cbln1N23Q (protein) parent chain: MLGVVELLLLGTAWLAGPARGQNETEPIVLEGKCLVVCDSNPTSDPTGTALGISVRSGSAKVAFSAIRSTNHEPSEMSNRTMIIYFDQVLVNIGNNFDSERSTFIAPRKGIYSFNFHVVKVYNRQTIQVSLMLNGWPVISAFAGDQDVTREAASNGVLIQMEKGDRAYLKLERGNLMGGWKYSTFSGFLVFPL | no change | no change | –
